Source: doi:10.1101/2020.05.13.093591

Target: PfPDI8 (PF3D7_0827900), 3xV5-tagged at the endogenous locus (P. falciparum (3D7))
Assay: cross-linking + co-IP

Substance: PfBiP, the Hsp70 Binding immunoglobulin Protein (natural protein)
- fold increase of co-immunoprecipitated PfBiP with DVSF against without DVSF: 2 fold
